Target: Human insulin receptor subtype B (human), P06213
Assay: cell-based or functional assay

B1: Fusion protein 1 (insulin analog 1 + L2 + IgG2 Fc1) (Fc fusion)
chain: FVNQHLCGEHLVEALYLVCGERGFHYGGGGGGSGGGGGIVEQCCESICSLEQLENYCGGGGGQGGGGQGGGGQGGGGGECPPCPAPPVAGPSVFLFPPKPKDTLMISRTPEVTCVVVDVSHEDPEVQFNWYVDGVEVHNAKTKPREEQFNSTFRVVSVLTVVHQDWLNGKEYKCKVSNKGLPAPIEKTISKTKGQPREPQVYTLPPSREEMTKNQVSLTCLVKGFYPSDIAVEWESNGQPENNYKTTPPMLDSDGSFFLYSKLTVDKSRWQQGNVFSCSVMHEALHNHYTQKSLSLSPG
Q: For B1, which Human insulin receptor subtype B activity (EC50) is on record?
A: 422 nM

Source: patent EP4782465A1
